Like-named read-outs stand apart in the source and are kept apart here.
What was measured:
His6-MBP-PadeB1 [1] = assay: fluorescence polarisation
His6-MBP-PadeB1 [2] = assay: fluorescence polarisation; remark: listed apart in the source

Substance | Ki (His6-MBP-PadeB1 [1]) [nM] | Ki (His6-MBP-PadeB1 [2]) [nM] | Kd (His6-MBP-PadeB1 [1]) [nM]
PadeA(−19 to −7) peptide | 119 | 120 | 
Fl-PadeA (PadeA labelled with fluorescein-5-maleimide) (peptide) |  |  | 69
PadeA variant A1G (peptide) |  | 127 | 
PadeA variant Y–15A (peptide) |  | 1180 | 
PadeA variant P–12A (peptide) |  | 476 | 
PadeA variant P–12A/Y–15A (peptide) |  | 1340 | 
PadeA precursor peptide, wild type (WT) |  | 137 | 
PadeA variant T–2A (peptide) |  | 152 | 
